Measurements taken from PMC6588694.

Biological target: concanavalin A
Experiment: SEC; Superdex 200 Increase 10/300 GL, 50 mM Tris, 150 mM NaCl, 100 mM glucose; molecular weight calibrated with a gel filtration calibration kit

- stoichiometry N: 4
Substance: concanavalin A (natural protein)
